Measured values: article PMC7954794 (2021)
No end group written: not given here.

Key:
Assay in all cases: FP
[1] = biological target: NCK2 full-length recombinant protein (mouse, WT, tag-free) (mouse, UniProt O55033 1-380)
[2] = biological target: NCK2 2|3|1 full-length recombinant protein (SH3-shuffled, tag-free) (mouse, UniProt O55033 114-170; O55033 60-113; O55033 198-256; O55033 171-197; O55033 2-59; …)
[3] = biological target: NCK2 3|1|2 full-length recombinant protein (SH3-shuffled, tag-free) (mouse, UniProt O55033 198-256; O55033 60-113; O55033 2-59; O55033 171-197; O55033 114-170; …)
[4] = biological target: NCK2 1|3|2 full-length recombinant protein (SH3-shuffled, tag-free) (mouse, UniProt O55033 1-113; O55033 198-256; O55033 171-197; O55033 114-170; O55033 257-380)
[5] = biological target: NCK2 3|2|1 full-length recombinant protein (SH3-shuffled, tag-free) (mouse, UniProt O55033 198-256; O55033 60-197; O55033 2-59; O55033 257-380)
[6] = biological target: NCK2 2|1|3 full-length recombinant protein (SH3-shuffled, tag-free) (mouse, UniProt O55033 114-170; O55033 60-113; O55033 2-59; O55033 171-380)
Sequence of NCK2 2|1|3 full-length recombinant protein (SH3-shuffled, tag-free) (O55033 other isoform, or with tags, fused parts or gaps): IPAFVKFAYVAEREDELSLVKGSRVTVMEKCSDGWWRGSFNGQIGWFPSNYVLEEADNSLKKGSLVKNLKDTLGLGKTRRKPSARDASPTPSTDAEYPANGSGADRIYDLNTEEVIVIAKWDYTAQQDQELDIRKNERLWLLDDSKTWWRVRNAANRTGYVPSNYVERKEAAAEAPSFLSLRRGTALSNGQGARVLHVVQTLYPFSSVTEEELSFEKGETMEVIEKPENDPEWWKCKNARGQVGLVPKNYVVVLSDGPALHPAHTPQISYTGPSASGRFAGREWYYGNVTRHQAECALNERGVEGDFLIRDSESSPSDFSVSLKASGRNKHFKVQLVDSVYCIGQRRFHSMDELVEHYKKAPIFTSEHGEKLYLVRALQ

Sequence of NCK2 3|1|2 full-length recombinant protein (SH3-shuffled, tag-free) (O55033 other isoform, or with tags, fused parts or gaps): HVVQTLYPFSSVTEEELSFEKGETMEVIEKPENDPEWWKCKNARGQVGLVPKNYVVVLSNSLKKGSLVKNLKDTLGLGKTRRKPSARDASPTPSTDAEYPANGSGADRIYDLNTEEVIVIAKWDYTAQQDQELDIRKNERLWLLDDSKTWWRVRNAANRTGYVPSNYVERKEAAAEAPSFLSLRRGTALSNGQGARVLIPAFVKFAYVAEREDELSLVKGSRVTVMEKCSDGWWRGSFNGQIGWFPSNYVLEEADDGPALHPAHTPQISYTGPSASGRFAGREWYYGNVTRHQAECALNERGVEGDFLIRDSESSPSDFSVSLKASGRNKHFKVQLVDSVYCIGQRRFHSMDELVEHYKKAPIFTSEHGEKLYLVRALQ
Sequence of NCK2 2|3|1 full-length recombinant protein (SH3-shuffled, tag-free) (O55033 other isoform, or with tags, fused parts or gaps): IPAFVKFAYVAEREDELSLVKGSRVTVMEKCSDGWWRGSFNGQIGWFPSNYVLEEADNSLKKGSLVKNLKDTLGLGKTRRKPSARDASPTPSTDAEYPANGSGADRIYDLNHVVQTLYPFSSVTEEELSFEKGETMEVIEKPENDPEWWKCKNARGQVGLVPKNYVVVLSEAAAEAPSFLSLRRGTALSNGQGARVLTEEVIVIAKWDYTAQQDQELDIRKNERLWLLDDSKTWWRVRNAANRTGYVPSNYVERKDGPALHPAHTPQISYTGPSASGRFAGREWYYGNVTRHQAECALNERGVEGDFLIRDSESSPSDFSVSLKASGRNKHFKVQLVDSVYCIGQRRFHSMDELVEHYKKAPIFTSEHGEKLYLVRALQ
Sequence of NCK2 full-length recombinant protein (mouse, WT, tag-free) (O55033 whole entry): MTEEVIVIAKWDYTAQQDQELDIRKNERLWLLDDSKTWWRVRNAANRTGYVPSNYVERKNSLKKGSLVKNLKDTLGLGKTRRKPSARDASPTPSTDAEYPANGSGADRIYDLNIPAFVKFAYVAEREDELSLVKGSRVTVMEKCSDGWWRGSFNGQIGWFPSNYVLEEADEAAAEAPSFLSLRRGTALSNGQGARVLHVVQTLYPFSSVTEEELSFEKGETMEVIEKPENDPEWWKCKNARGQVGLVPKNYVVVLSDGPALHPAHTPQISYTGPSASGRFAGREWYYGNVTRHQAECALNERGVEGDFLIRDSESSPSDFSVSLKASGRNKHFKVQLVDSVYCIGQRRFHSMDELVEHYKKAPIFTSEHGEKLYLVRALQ
Sequence of NCK2 1|3|2 full-length recombinant protein (SH3-shuffled, tag-free) (O55033 other isoform, or with tags, fused parts or gaps): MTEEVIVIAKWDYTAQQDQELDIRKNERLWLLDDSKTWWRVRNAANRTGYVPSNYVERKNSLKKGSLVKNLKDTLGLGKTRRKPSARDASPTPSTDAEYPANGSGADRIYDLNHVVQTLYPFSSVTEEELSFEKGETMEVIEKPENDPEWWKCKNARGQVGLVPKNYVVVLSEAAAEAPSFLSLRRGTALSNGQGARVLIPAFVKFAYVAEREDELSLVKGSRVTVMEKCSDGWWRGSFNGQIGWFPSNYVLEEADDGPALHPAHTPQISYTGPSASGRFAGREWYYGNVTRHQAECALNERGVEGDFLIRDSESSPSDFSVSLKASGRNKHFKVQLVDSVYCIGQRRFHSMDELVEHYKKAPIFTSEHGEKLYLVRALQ
Sequence of NCK2 3|2|1 full-length recombinant protein (SH3-shuffled, tag-free) (O55033 other isoform, or with tags, fused parts or gaps): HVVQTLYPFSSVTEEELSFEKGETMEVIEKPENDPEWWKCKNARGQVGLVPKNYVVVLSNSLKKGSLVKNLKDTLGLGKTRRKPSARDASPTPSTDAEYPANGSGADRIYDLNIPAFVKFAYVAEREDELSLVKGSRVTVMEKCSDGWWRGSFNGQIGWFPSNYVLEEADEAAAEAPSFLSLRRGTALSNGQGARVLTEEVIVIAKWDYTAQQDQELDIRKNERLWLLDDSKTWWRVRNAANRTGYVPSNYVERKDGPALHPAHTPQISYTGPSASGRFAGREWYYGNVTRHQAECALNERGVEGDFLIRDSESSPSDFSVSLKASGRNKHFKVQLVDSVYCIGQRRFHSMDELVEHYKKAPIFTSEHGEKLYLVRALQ

Kd [1] [µM]	Kd [2] [µM]	Kd [3] [µM]	Kd [4] [µM]	Kd [5] [µM]	Kd [6] [µM]	Binder
36	21.6	54.8	77.9	31.6		DIQDKPPAPPMRNTST (also: fluorescein isothiocyanate-conjugated (position not given here)) [PAK1 peptide (DIQDKPPAPPMRNTST), fluorescein isothiocyanate-conjugated]
12.7	26.3	16.2	13.5		18	RGQNKERPPPVPNPDY (also: fluorescein isothiocyanate-conjugated (position not given here)) [Cd3ε peptide (RGQNKERPPPVPNPDY), fluorescein isothiocyanate-conjugated]
